Test results as given in patent US11015206B2, “Compositions and methods comprising sequences having hydroxyphenylpyruvate dioxygenase (HPPD) activity” (PIONEER HI-BRED INTERNATIONAL, INC., priority 2014, dated 2021).
Where a chain is given by its changes, count along the chain named. Names may count otherwise.

B1: 366E: single substitution Q366E in Round 7, variant 9070 (SEQ ID NO:2) (protein)
chain: MGPTPTATAAGAAVAAASAAEQAAFRLVGHRNFVRFNPRSDRFQTLAFHHVELWCADAASAAGRFSFALGVPLAARSDLSTGNSAHASLLLRSGSLSLLFTAPYAHGADAATAALPSFSAAAARRFAADHGLAVRAVALRVADAEDAFRASVAAGARPAFGPVDLGRGFRLAEVELYGDVVLRYVSYPDGAAGEPFLPGFEGVASPGAADYGLSRFDHIVGNVPELAPAAAYMAGFTGFHEFAEFTTEDVGTTESGLNSMALANNSENVLLPLNEPVHGTKRRSQIQTFLDHHGGPGVQHIALASDDVLRTLREMRARSAMGGFEFLPPPLSDYYDGVRRCAGDVLTEAQINECQELGVMVDRDDEGVLLQIFTKPVGDRPTFFLEIIQRIGCMEKDEKGQEYQKGGCGGFGKGNFGQLFKSIEDYEKSLEAKQAAAAATAQGS
modifications: Zea mays variant form created by artificial means.
B2: 376W: single substitution 376W in SEQ ID NO:2 (protein)
chain: B1 chain with E366Q, P376W
modifications: Zea mays variant form created by artificial means.
B3: 360L: single substitution 360L in SEQ ID NO:2 (protein)
chain: B1 chain with M360L, E366Q
modifications: Zea mays variant form created by artificial means.
B4: 417Q: single substitution G417Q in SEQ ID NO:2 (protein)
chain: B1 chain with E366Q, G417Q
modifications: Zea mays variant form created by artificial means.
B5: 417S: single substitution G417S in SEQ ID NO:2 (protein)
chain: B1 chain with E366Q, G417S
modifications: Zea mays variant form created by artificial means.
B6: 385V: single substitution L385V in SEQ ID NO:2 (protein)
chain: B1 chain with E366Q, L385V
modifications: Zea mays variant form created by artificial means.
B7: 432R: single substitution A432R in SEQ ID NO:2 (protein)
chain: B1 chain with E366Q, A432R
modifications: Zea mays variant form created by artificial means.
B8: 390N: single substitution 390N in SEQ ID NO:2 (protein)
chain: B1 chain with E366Q, R390N
modifications: Zea mays variant form created by artificial means.

How the values were obtained:
Format in all cases: biochemical, Z. mays
[1] = test system: 4-hydroxyphenylpyruvate dioxygenase (HPPD); experiment: HPPD activity coupled assay with HGD; substrate saturation kinetic parameters (kcat, KM); conditions: Table 6; for kcat: single substitutions in SEQ ID NO:2
Procedure, shortened: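 Coupled continuous assay: His-tagged HPPD (5 to 240 nM, E. coli-expressed, Ni-NTA-purified) with 50 nM P. aeruginosa HGD in 25 mM Hepes pH 7, 2 mM ascorbate, 10 μM FeSO4; maleylacetoacetate followed at 320 nm. KM and Vmax from Lineweaver-Burke fits over 3.33–100 μM HPP.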

[2] = test system: 4-hydroxyphenylpyruvate dioxygenase (HPPD); experiment: ON rate ratio: HPPD reaction rate with vs without inhibitor in the 70 to 90 second interval; conditions: Table 5; tembotrione
Procedure, shortened: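 Indicator of inhibitor on-rate: reaction velocity in the 70 to 90 second window with 4 μM inhibitor divided by that without. Reactions contained 100 μM HPP and 60 or 120 nM HPPD; slower binding gives a larger ratio.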

[3] = test system: 4-hydroxyphenylpyruvate dioxygenase (HPPD); experiment: OFF rate ratio: release of inhibitor from pre-formed enzyme-inhibitor complex; conditions: Table 5; tembotrione
Procedure, shortened: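 Inhibitor release from pre-formed complex (enzyme 7.2 μM, inhibitor 8 μM, 1 h RT) tracked as accelerating HPPD activity at 320 nm over 12 min, coupled via 50 nM HGD with 100 μM HPP at pH 7. OFF rate ratio: steady-state velocity relative to uninhibited initial velocity.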

[4] = test system: 4-hydroxyphenylpyruvate dioxygenase (HPPD); experiment: Insensitivity parameter (ON × OFF) and trait fitness (ON × OFF × kcat/KM or × kcat); conditions: for ON × OFF × kcat, Value / ON × OFF × kcat, Fold vs wt / ON × OFF, fold vs wt / ON × OFF (parameters with tembotrione): Table 5, tembotrione; for ON × OFF × kcat, Fold vs wt / ON × OFF, fold vs wt: fold vs maize wild type HPPD; for ON × OFF (parameters with tembotrione): insensitivity parameter
Procedure, shortened: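 Trait fitness combines catalysis and insensitivity as kcat/KM × ON rate ratio × OFF rate ratio. The insensitivity parameter is the product of ON and OFF rate ratios, used in place of KD because the ON rate ratio is inverse.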

[5] = test system: 4-hydroxyphenylpyruvate dioxygenase (HPPD); experiment: Estimate of kcat from initial rate at saturating hydroxyphenylpyruvate without inhibitor (ON rate ratio assay); conditions: Table 5; single substitutions in Round 7 variant 9070 (SEQ ID NO:2); estimate from initial rate at saturating hydroxyphenylpyruvate without inhibitor
Procedure, shortened: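 kcat was estimated from the initial reaction rate with known enzyme level (60 or 120 nM HPPD). Hydroxyphenylpyruvate was at a saturating 100 μM, with no inhibitor present.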

[6] = DKN (diketonitrile form of isoxaflutole)
[7] = DKN (isoxaflutole diketonitrile)

Molecule | Km [1] | kcat [1] | ON ratio (parameters with tembotrione) [2] | OFF ratio (parameters with tembotrione) [3] | Insensitivity parameter, ON × OFF [4, 6] | ON × OFF × kcat/km fold vs Round 7, variant 9070 [4, 7] | Insensitivity parameter, ON × OFF ([4]; Mesotrione, Table 6) | ON × OFF × kcat/km fold vs Round 7, variant 9070 ([4]; Sulco (sulcotrione)) | Insensitivity parameter, ON × OFF ([4]; Sulcotrione) | ON × OFF × kcat, Value [4] | ON × OFF × kcat, Fold vs wt [4] | ON × OFF, fold vs wt [4] | ON × OFF (parameters with tembotrione) [4] | Insensitivity parameter, ON × OFF ([4]; Tembotrione) | ON × OFF × kcat/km fold vs Round 7, variant 9070 ([4]; Topra (topramezone)) | Insensitivity parameter, ON × OFF ([4]; Topramezon) | ON × OFF × kcat/km fold vs Round 7, variant 9070 ([4]; meso (mesotrione)) | ON × OFF × kcat/km fold vs Round 7, variant 9070 ([4]; tembo (tembotrione)) | kcat [5]
B1 | 1.61 µM | 0.647 s⁻¹ | 0.75 | 0.24 | 0.44 | 1.7 | 0.78 | 1.4 | 0.74 | 3.58 | 3.35 | 34.9 | 0.18 | 0.33 | 1.9 | 0.48 | 1.8 | 1.8 | 0.335 s⁻¹
B2 | 5.51 µM | 0.602 s⁻¹ | 0.68 | 0.34 | 0.37 |  | 0.39 |  | 0.16 | 5.42 | 5.07 | 46.0 | 0.23 | 0.31 |  | 0.32 |  |  | 0.385 s⁻¹
B3 | 1.71 µM | 0.543 s⁻¹ | 0.77 | 0.22 | 0.34 |  | 0.51 |  | 0.63 | 4.41 | 4.12 | 32.6 | 0.17 | 0.25 |  | 0.32 |  |  | 0.442 s⁻¹
B4 | 1.56 µM | 0.558 s⁻¹ | 0.74 | 0.27 | 0.39 | 1.0 | 0.73 | 1.2 | 0.74 | 4.04 | 3.77 | 38.4 | 0.20 | 0.33 | 1.4 | 0.39 | 1.5 | 1.5 | 0.343 s⁻¹
B5 | 1.41 µM | 0.445 s⁻¹ | 0.82 | 0.28 | 0.41 | 0.9 | 0.67 | 1.1 | 0.77 | 4.26 | 3.98 | 45.2 | 0.23 | 0.33 | 1.2 | 0.41 | 1.3 | 1.6 | 0.308 s⁻¹
B6 | 1.91 µM | 0.505 s⁻¹ | 0.75 | 0.33 | 0.33 | 1.1 | 0.65 | 1.0 | 0.78 | 5.26 | 4.92 | 48.2 | 0.25 | 0.34 | 1.3 | 0.49 | 1.0 | 1.4 | 0.357 s⁻¹
B7 | 1.97 µM | 0.945 s⁻¹ | 0.78 | 0.20 | 0.27 | 2.1 | 0.53 | 1.3 | 0.59 | 4.75 | 4.44 | 30.4 | 0.16 | 0.23 | 1.4 | 0.31 | 1.5 | 1.6 | 0.51 s⁻¹
B8 | 2.86 µM | 0.837 s⁻¹ | 0.75 | 0.22 | 0.29 |  | 0.45 |  | 0.58 | 5.00 | 4.67 | 32.4 | 0.17 | 0.20 |  | 0.27 |  |  | 0.505 s⁻¹
